Results on 18 variants are retold here after the supplement of paper PMC7125110.

B1: glmS ribozyme (parent)
chain: AUAAAAGCGCCAGAACUACAGAAAUGUAGUUGACGAGGAGGAGGUUUAUCGAAUUUUCGGCGGAUGCCUCCAAA

Details in all cases: with glucosamine-6-phosphate
Series [1] covers variants of B1. In words: self-cleavage kobs at 40 uM GlcN6P; higher = faster cleavage; RNA array. Put shortly:
(§1)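 Barcoded ribozyme variants on sequenced MiSeq chips were transcribed in situ by E. coli RNA polymerase and followed at 37 °C through a hybridised Cy3 probe. Glucosamine-6-phosphate at 40 μM to 10 mM in HEPES/KCl/Mg(OAc)2 buffer was flowed in, and tiles were imaged over ~14 h. Signals were normalised to baseline and to non-cleaving reference variants, and per-tile medians were fit to one- or two-exponential decays to give kobs. Weighted Michaelis–Menten fits across concentrations gave kcat and KM.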

Series [2] covers variants of B1. The experiment in a line: self-cleavage kobs at 160 uM GlcN6P; higher = faster cleavage; RNA array. The method, boiled down:
as §1

In series [3] the parent is B1. The experiment in a line: self-cleavage kobs at 640 uM GlcN6P; higher = faster cleavage; RNA array. The method, boiled down: as §1
Variants of B1 are the subject of series [4]. In words: self-cleavage kobs at 2500 uM GlcN6P; higher = faster cleavage; RNA array. Put shortly: as §1
Variants of B1 are the subject of series [5]. In words: self-cleavage kobs at 10000 uM GlcN6P; higher = faster cleavage; RNA array. The method, boiled down:
as §1

± gives the standard error. Fewer inactive variants are shown than the library holds.

Regarding AUAAAAGCGCCAGAACUACAGAAAUGUAGUUGACGAGUAGCAGGUUUAUCGAAUUUUCGGCGGAUGCCUCCAAA, the “self-cleavage kobs at 40 uM GlcN6P” value in series [1] is below 1e-05 s⁻¹. For the same variant, the “self-cleavage kobs at 160 uM GlcN6P” value in series [2] was below 1e-05 s⁻¹. Further, in series [3], the “self-cleavage kobs at 640 uM GlcN6P” value was below 1e-05 s⁻¹. The “self-cleavage kobs at 2500 uM GlcN6P” value in series [4] was below 1e-05 s⁻¹. Further, the “self-cleavage kobs at 10000 uM GlcN6P” value in series [5] is below 1e-05 s⁻¹.

Regarding AUAAAAGCGCCAGAACUACAGAAAUGUAGUUGACGAGGAGGAGAUGUAUCGAAUUUUCGGCGGAUGCCGCCAAA, the “self-cleavage kobs at 40 uM GlcN6P” value in series [1] was below 1e-05 s⁻¹. Moreover, in series [5], the “self-cleavage kobs at 10000 uM GlcN6P” value was below 1e-05 s⁻¹.

Turning to AUAAAAGCGCCAGAACUACAGAAAUGUAGAUGACGAGGAGGAGGUUUGUCGAAUUUUCGGCGGAUGCCUCCAAA, the “self-cleavage kobs at 40 uM GlcN6P” value in series [1] was below 1e-05 s⁻¹. In addition, the “self-cleavage kobs at 160 uM GlcN6P” value in series [2] is below 1e-05 s⁻¹. Moreover, in series [3], the “self-cleavage kobs at 640 uM GlcN6P” value was below 1e-05 s⁻¹.

For the variant AUAAAAGCGCCAGAAGUACAGAAAUGUAGUUGAGGAGGAGGAGGUUUAUCGAAUUUUCGUGGGAAGGCUCCAAA, the “self-cleavage kobs at 40 uM GlcN6P” value in series [1] was determined as 8.29e-05 ± 1.8e-05 s⁻¹. For the same variant, the “self-cleavage kobs at 2500 uM GlcN6P” value in series [4] is 0.000198 ± 6.9e-05 s⁻¹.

As for AUAAAAGCGCCAGUACUACAGAAAUGUAGUUGACGAGGAGGAGGUUUAUCGAAAUUUCCGCGGAUGCCUCCAAA, the “self-cleavage kobs at 40 uM GlcN6P” value in series [1] is below 1e-05 s⁻¹. In addition, in series [5], the “self-cleavage kobs at 10000 uM GlcN6P” value is below 1e-05 s⁻¹.

In the case of AUAAAAGCGCCAGAACUACAGAAAUGUAGAUGACGAGGAGGAGGUUUAUCGAAUUUUCGUCGGAUGCCUCCAAA, the “self-cleavage kobs at 40 uM GlcN6P” value in series [1] was below 1e-05 s⁻¹. Also, the “self-cleavage kobs at 160 uM GlcN6P” value in series [2] was below 1e-05 s⁻¹. For the same variant, in series [3], the “self-cleavage kobs at 640 uM GlcN6P” value is below 1e-05 s⁻¹. For the same variant, in series [5], the “self-cleavage kobs at 10000 uM GlcN6P” value is below 1e-05 s⁻¹.

With AUAAAAGCGCCAGAACUACAGAAAUGUAGUUGAAGAGGAGAAGGUUUAUCGAAUUUUCGGCGGAGGCCUCCAAA, the “self-cleavage kobs at 40 uM GlcN6P” value in series [1] was below 1e-05 s⁻¹.

Consider AUAAAAGCGCCAGAACUACAGAAAUGUAUUUGACAAGGACGGGGUUUAUCGAAUUUUCGGCGGAUGCCUCCAAA, for which the “self-cleavage kobs at 40 uM GlcN6P” value in series [1] was below 1e-05 s⁻¹.

For the variant AUAAAAGCGCCAGUACUACAGAAAUGUAGUUGACGAGGAGGAGGGUUAUCGAAUUUUCGGCCGAUGCCUCCAAA, in series [1], the “self-cleavage kobs at 40 uM GlcN6P” value was below 1e-05 s⁻¹. Besides, the “self-cleavage kobs at 10000 uM GlcN6P” value in series [5] is below 1e-05 s⁻¹.

In the case of AUAAAAGCGACAAAACUACAGAAAUGUAGUUGACGAGGAGGAGGUUUAUCGAAUUCUCGGCGGAUGCCUCCAAA, the “self-cleavage kobs at 40 uM GlcN6P” value in series [1] was below 1e-05 s⁻¹.

For AUAAAAGCUCCAGAACUACAGAAAUGUAGUUGCCGAGGAGGAGGUUUAUCGAAUUUUCGGCGGAUGCCGCCAAA, in series [1], the “self-cleavage kobs at 40 uM GlcN6P” value was below 1e-05 s⁻¹.

As to AUAAAAGAGCCAGAACUACAGAAAUGUAGUCGACGAGGAAGCGGUUUAUCGAAUUUUCGGCGGAAACCUCCAAA, in series [1], the “self-cleavage kobs at 40 uM GlcN6P” value is below 1e-05 s⁻¹.

Turning to AUAAAAGCGCCAGAACUACAGAAAUGUAGUUGACGAGGAGGAGGUUUCUCGAAUUUUCGGCGGAUGCCGCCAAA, the “self-cleavage kobs at 40 uM GlcN6P” value in series [1] is below 1e-05 s⁻¹. Moreover, the “self-cleavage kobs at 160 uM GlcN6P” value in series [2] was below 1e-05 s⁻¹. Also, the “self-cleavage kobs at 10000 uM GlcN6P” value in series [5] is below 1e-05 s⁻¹.

In the case of AUAAAAGCGCCAGAACUACAGAAAUGUAGUUGACGAUGAGGAGGUUUAUCGAAUUUUCGCCGGAUGCCUCCAAA, in series [1], the “self-cleavage kobs at 40 uM GlcN6P” value is below 1e-05 s⁻¹. The “self-cleavage kobs at 160 uM GlcN6P” value in series [2] is below 1e-05 s⁻¹. Moreover, the “self-cleavage kobs at 640 uM GlcN6P” value in series [3] was below 1e-05 s⁻¹.

Regarding AUAAAAGCGCCAGAACUACAGAAAUGUAGUUGACGGGGAGGAGGUUUAUCGAAUUUUUGGCGGAUGCCUUCAAA, the “self-cleavage kobs at 40 uM GlcN6P” value in series [1] was below 1e-05 s⁻¹. Besides, in series [2], the “self-cleavage kobs at 160 uM GlcN6P” value was below 1e-05 s⁻¹. The “self-cleavage kobs at 640 uM GlcN6P” value in series [3] was below 1e-05 s⁻¹.

For the variant AUAAAAGCGCCAGAACUACAGAAAUGUAGUUGACGAGGAGGAGGGUUAUCGCAUUUUCGGCGGAUGCCUCCAAA, the “self-cleavage kobs at 40 uM GlcN6P” value in series [1] is below 1e-05 s⁻¹.

For AUAAAAGCGCCAGAACUACAGAAAUGUAGUUGACGAGGAGGAGAUUUAUCGAAUUUUCGACGGAUGCCUCCAAA, the “self-cleavage kobs at 40 uM GlcN6P” value in series [1] is below 1e-05 s⁻¹. In addition, the “self-cleavage kobs at 160 uM GlcN6P” value in series [2] was below 1e-05 s⁻¹. The “self-cleavage kobs at 640 uM GlcN6P” value in series [3] was below 1e-05 s⁻¹. Besides, the “self-cleavage kobs at 2500 uM GlcN6P” value in series [4] was below 1e-05 s⁻¹. Also, in series [5], the “self-cleavage kobs at 10000 uM GlcN6P” value was below 1e-05 s⁻¹.

For the variant AUAAAUGCGCCAGAACUACAGAAAUGUAGUUGACCAGGAGGAGGUUUAUCGAAAUUUCGGCGGAUGCCUCCAAA, the “self-cleavage kobs at 40 uM GlcN6P” value in series [1] was below 1e-05 s⁻¹.
